Read-outs that look alike come from different tables or passages of the source.
Columns and labels:
recombinant human IL13 = molecular target: T1, recombinant human IL13 (human, UniProt P35225 35-146, limits assumed); assay: SPR (Biacore 3000), captured CODV-Ig, antigen as analyte;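 also: kd derived from kinetic fits in BIAevaluation 4.1, with signals referenced against a flow cell lacking captured antibody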
T1 construct: bought; also called Antigen2

recombinant human IL4 [1] = molecular target: T2, recombinant human IL4 (human, UniProt P05112 25-153); assay: as above
T2 construct: bought; also called Antigen1
T2 sequence (looked up): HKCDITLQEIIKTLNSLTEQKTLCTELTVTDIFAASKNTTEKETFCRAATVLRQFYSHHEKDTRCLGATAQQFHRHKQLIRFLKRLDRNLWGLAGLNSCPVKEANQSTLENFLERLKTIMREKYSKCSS

recombinant human IL4 [2] = molecular target: T3, recombinant human IL4 (human, UniProt P05112 25-153); assay: cell-based or functional assay
T3 sequence (looked up): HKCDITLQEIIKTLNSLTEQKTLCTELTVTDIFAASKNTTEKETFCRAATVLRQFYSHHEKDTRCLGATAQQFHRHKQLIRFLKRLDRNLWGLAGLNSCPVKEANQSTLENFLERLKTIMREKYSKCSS

recombinant human IL4 [3] = molecular target: T3, recombinant human IL4; assay: SPR (Biacore 3000), antibody captured, antigen as analyte
recombinant human IL4 [4] = molecular target: T3, recombinant human IL4; assay: cell-based or functional assay; remark: listed apart in the source
recombinant human IL4 [5] = molecular target: T3, recombinant human IL4; assay: SPR (Biacore 3000), antibody captured, antigen as analyte; remark: listed apart in the source

T1 sequence (P35225 35-146 limits assumed): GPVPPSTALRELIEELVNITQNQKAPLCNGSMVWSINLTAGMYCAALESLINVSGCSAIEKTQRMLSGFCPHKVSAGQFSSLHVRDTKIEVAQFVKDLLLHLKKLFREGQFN

B1: CODV-Ig Batch ID 202 (IL4 × IL13 on HC; L1=5, L2=5, L3=1, L4=2) (bispecific antibody)
chain 1: not shown
chain 2: DIVLTQSPASLAVSLGQRATISCRASESVDSYGQSYMHWYQQKAGQPPKLLIYLASNLESGVPARFSGSGSRTDFTLTIDPVQAEDAATYYCQQNAEDSRTFGGGTKLEIKGGGGGDIQMTQSPASLSVSVGDTITLTCHASQNIDVWLSWFQQKPGNIPKLLIYKASNLHTGVPSRFSGSGSGTGFTLTISSLQPEDIATYYCQQAHSYPFTFGGGTKLEIKGGGGGRTVAAPSVFIFPPSDEQLKSGTASVVCLLNNFYPREAKVQWKVDNALQSGNSQESVTEQDSKDSTYSLSSTLTLSKADYEKHKVYACEVTHQGLSSPVTKSFNRGEC
With B1 the Kd (recombinant human IL13) was 0.054 nM and the Kd (recombinant human IL4 [1]) was 0.009 nM.

B2: CODV-Ig Batch ID 802 (Batch ID 204 with LC G114C, HC Q43C) (bispecific antibody)
heavy: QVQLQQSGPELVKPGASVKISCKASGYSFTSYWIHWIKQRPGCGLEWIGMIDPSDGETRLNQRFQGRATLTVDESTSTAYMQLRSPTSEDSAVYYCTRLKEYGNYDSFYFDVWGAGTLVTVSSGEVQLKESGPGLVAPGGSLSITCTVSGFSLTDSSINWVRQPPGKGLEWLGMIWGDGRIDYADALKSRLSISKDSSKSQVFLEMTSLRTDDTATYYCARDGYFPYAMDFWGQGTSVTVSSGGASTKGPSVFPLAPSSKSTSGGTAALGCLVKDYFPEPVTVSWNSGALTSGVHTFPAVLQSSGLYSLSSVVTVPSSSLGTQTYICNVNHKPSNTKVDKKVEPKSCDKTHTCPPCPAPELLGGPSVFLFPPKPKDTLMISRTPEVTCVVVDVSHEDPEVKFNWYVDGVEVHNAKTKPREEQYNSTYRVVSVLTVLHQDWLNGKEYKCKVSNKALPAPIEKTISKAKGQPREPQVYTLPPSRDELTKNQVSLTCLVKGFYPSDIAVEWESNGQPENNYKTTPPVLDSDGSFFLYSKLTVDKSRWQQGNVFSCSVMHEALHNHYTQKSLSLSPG
light: DIVLTQSPASLAVSLGQRATISCRASESVDSYGQSYMHWYQQKAGQPPKLLIYLASNLESGVPARFSGSGSRTDFTLTIDPVQAEDAATYYCQQNAEDSRTFGGGTKLEIKGGCGGGGDIQMTQSPASLSVSVGDTITLTCHASQNIDVWLSWFQQKPGNIPKLLIYKASNLHTGVPSRFSGSGSGTGFTLTISSLQPEDIATYYCQQAHSYPFTFGGGTKLEIKGGGGGRTVAAPSVFIFPPSDEQLKSGTASVVCLLNNFYPREAKVQWKVDNALQSGNSQESVTEQDSKDSTYSLSSTLTLSKADYEKHKVYACEVTHQGLSSPVTKSFNRGEC
modifications: Engineered cysteine pair LC C114 (in L1) and HC C43, intended inter-chain disulfide.
notes: The mutation numbers are read as counts along the whole chain: G114C lies in L1 as printed; Q43C lies in the N-terminal anti-IL4 VH
With B2 the “IC50 Cellular Assay IL4 [nM] (HEK-Blue IL-4/IL-13 reporter cells, SEAP)” value (“IC50 Cellular Assay IL4 [nM]” below) (recombinant human IL4 [2]) was 0.027 nM and the Kd (recombinant human IL4 [3]) was 0.006 nM.

B3: CODV-Ig Batch ID 805 (Batch ID 204 with LC G117C, HC Q43C) (bispecific antibody)
heavy: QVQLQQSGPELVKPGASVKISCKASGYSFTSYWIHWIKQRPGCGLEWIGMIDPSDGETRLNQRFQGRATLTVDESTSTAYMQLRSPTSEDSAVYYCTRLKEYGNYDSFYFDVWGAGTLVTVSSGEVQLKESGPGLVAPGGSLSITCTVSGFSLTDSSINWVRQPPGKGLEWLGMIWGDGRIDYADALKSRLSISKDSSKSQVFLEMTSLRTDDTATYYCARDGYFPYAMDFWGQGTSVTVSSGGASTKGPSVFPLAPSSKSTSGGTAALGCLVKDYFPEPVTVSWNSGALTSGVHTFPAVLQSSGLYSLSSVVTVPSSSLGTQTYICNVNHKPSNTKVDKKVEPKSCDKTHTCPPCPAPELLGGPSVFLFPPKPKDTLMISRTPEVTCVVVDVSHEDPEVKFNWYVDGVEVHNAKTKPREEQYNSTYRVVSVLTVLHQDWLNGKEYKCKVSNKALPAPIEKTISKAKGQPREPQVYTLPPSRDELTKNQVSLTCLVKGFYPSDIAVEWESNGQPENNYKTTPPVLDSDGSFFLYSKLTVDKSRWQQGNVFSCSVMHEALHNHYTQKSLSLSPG
light: DIVLTQSPASLAVSLGQRATISCRASESVDSYGQSYMHWYQQKAGQPPKLLIYLASNLESGVPARFSGSGSRTDFTLTIDPVQAEDAATYYCQQNAEDSRTFGGGTKLEIKGGGGGCGDIQMTQSPASLSVSVGDTITLTCHASQNIDVWLSWFQQKPGNIPKLLIYKASNLHTGVPSRFSGSGSGTGFTLTISSLQPEDIATYYCQQAHSYPFTFGGGTKLEIKGGGGGRTVAAPSVFIFPPSDEQLKSGTASVVCLLNNFYPREAKVQWKVDNALQSGNSQESVTEQDSKDSTYSLSSTLTLSKADYEKHKVYACEVTHQGLSSPVTKSFNRGEC
notes: The mutation numbers are read as counts along the whole chain: G117C lies in L1 as printed; Q43C lies in the N-terminal anti-IL4 VH
B3 was tested, and the “IC50 Cellular Assay IL4 [nM]” value (recombinant human IL4 [2]) was 0.047 nM and the Kd (recombinant human IL4 [3]) was 0.007 nM.

B4: CODV-Ig Batch ID 803 (Batch ID 204 with LC G115C, HC Q43C) (bispecific antibody)
heavy: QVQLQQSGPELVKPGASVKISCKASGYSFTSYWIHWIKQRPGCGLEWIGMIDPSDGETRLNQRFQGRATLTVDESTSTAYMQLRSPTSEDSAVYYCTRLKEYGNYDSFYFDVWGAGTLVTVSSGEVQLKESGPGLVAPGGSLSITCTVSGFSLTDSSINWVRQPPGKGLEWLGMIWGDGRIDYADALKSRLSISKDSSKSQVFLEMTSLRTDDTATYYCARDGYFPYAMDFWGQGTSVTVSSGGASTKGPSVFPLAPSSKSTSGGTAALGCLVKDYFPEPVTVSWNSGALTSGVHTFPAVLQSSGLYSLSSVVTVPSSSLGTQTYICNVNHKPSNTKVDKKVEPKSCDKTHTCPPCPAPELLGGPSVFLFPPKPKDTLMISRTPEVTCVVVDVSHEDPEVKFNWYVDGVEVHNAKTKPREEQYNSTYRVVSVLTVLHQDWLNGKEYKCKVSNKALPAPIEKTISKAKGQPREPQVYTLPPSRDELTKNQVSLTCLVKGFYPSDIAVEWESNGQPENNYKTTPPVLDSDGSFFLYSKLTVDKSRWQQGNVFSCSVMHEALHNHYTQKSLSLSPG
light: DIVLTQSPASLAVSLGQRATISCRASESVDSYGQSYMHWYQQKAGQPPKLLIYLASNLESGVPARFSGSGSRTDFTLTIDPVQAEDAATYYCQQNAEDSRTFGGGTKLEIKGGGCGGGDIQMTQSPASLSVSVGDTITLTCHASQNIDVWLSWFQQKPGNIPKLLIYKASNLHTGVPSRFSGSGSGTGFTLTISSLQPEDIATYYCQQAHSYPFTFGGGTKLEIKGGGGGRTVAAPSVFIFPPSDEQLKSGTASVVCLLNNFYPREAKVQWKVDNALQSGNSQESVTEQDSKDSTYSLSSTLTLSKADYEKHKVYACEVTHQGLSSPVTKSFNRGEC
modifications: Engineered cysteine pair LC C115 (in L1) and HC C43, intended inter-chain disulfide.
notes: The mutation numbers are read as counts along the whole chain: G115C lies in L1 as printed; Q43C lies in the N-terminal anti-IL4 VH
For B4, the “IC50 Cellular Assay IL4 [nM]” value (recombinant human IL4 [2]) was 0.036 nM and the Kd (recombinant human IL4 [3]) was 0.006 nM.

B5: CODV-Ig Batch ID 804 (Batch ID 204 with LC G116C, HC Q43C) (bispecific antibody)
heavy: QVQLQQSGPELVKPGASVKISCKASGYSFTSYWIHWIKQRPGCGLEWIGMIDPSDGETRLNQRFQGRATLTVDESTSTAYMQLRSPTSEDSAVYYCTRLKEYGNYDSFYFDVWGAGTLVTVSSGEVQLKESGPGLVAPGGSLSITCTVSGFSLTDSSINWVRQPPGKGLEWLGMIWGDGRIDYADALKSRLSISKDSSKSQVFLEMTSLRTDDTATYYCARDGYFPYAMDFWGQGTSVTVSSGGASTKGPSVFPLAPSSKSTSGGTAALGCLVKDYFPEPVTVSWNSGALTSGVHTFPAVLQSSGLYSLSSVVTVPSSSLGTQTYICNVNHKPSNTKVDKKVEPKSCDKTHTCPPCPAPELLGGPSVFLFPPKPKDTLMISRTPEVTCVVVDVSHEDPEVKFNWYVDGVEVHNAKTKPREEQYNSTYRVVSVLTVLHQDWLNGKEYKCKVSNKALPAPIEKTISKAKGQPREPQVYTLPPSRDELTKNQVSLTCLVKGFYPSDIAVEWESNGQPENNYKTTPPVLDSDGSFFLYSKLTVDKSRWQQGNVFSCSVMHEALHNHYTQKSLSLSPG
light: DIVLTQSPASLAVSLGQRATISCRASESVDSYGQSYMHWYQQKAGQPPKLLIYLASNLESGVPARFSGSGSRTDFTLTIDPVQAEDAATYYCQQNAEDSRTFGGGTKLEIKGGGGCGGDIQMTQSPASLSVSVGDTITLTCHASQNIDVWLSWFQQKPGNIPKLLIYKASNLHTGVPSRFSGSGSGTGFTLTISSLQPEDIATYYCQQAHSYPFTFGGGTKLEIKGGGGGRTVAAPSVFIFPPSDEQLKSGTASVVCLLNNFYPREAKVQWKVDNALQSGNSQESVTEQDSKDSTYSLSSTLTLSKADYEKHKVYACEVTHQGLSSPVTKSFNRGEC
modifications: Engineered cysteine pair LC C116 (in L1) and HC C43, intended inter-chain disulfide.
notes: The mutation numbers are read as counts along the whole chain: G116C lies in L1 as printed; Q43C lies in the N-terminal anti-IL4 VH
For B5, the “IC50 Cellular Assay IL4 [nM]” value (recombinant human IL4 [2]) was 0.04 nM and the Kd (recombinant human IL4 [3]) was 0.002 nM.

B6: CODV-Ig Batch ID 508 (IL4 × IL13 on HC; L1 HIDSPNK, L2 QRIEG, L3 V, L4 SL) (bispecific antibody)
heavy: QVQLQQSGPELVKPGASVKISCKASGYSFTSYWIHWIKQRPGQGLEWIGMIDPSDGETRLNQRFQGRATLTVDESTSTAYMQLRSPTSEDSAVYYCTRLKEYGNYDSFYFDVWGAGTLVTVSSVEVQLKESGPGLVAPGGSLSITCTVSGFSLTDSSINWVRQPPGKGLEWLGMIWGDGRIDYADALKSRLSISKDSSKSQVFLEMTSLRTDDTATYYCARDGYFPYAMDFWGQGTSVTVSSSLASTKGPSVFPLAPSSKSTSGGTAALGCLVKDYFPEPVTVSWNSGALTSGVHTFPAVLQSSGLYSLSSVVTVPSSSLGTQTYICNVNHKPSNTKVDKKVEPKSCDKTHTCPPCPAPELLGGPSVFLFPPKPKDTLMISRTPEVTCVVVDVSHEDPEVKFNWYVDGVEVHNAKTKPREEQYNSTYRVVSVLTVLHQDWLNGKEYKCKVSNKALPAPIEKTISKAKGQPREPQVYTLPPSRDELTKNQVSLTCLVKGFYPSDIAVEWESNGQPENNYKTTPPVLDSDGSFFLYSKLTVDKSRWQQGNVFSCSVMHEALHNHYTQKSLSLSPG
light: DIVLTQSPASLAVSLGQRATISCRASESVDSYGQSYMHWYQQKAGQPPKLLIYLASNLESGVPARFSGSGSRTDFTLTIDPVQAEDAATYYCQQNAEDSRTFGGGTKLEIKHIDSPNKDIQMTQSPASLSVSVGDTITLTCHASQNIDVWLSWFQQKPGNIPKLLIYKASNLHTGVPSRFSGSGSGTGFTLTISSLQPEDIATYYCQQAHSYPFTFGGGTKLEIKQRIEGRTVAAPSVFIFPPSDEQLKSGTASVVCLLNNFYPREAKVQWKVDNALQSGNSQESVTEQDSKDSTYSLSSTLTLSKADYEKHKVYACEVTHQGLSSPVTKSFNRGEC
With B6 the “IC50 Cellular Assay IL4 [nM]” value (recombinant human IL4 [4]) was 0.054 nM and the Kd (recombinant human IL4 [5]) was 0.001 nM.

B7: CODV-Ig Batch ID 506 (IL4 × IL13 on HC; L1 GQPKAAP, L2 TVAAP, L3 S, L4 TK) (bispecific antibody)
heavy: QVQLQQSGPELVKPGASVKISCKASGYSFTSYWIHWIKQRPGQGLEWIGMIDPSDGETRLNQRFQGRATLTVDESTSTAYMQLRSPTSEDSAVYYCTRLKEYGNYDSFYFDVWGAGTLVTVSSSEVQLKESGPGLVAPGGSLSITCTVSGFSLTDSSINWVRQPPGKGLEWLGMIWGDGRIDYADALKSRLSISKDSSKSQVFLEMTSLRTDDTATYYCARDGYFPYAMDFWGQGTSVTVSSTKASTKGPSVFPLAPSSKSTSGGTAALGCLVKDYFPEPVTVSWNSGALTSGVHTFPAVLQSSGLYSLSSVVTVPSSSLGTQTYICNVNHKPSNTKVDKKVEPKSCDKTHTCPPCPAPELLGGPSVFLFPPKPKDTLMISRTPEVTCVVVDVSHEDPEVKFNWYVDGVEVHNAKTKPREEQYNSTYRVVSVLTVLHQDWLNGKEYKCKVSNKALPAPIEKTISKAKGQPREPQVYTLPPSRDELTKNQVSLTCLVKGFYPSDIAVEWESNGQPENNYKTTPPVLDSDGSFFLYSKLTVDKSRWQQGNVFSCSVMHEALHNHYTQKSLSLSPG
light: DIVLTQSPASLAVSLGQRATISCRASESVDSYGQSYMHWYQQKAGQPPKLLIYLASNLESGVPARFSGSGSRTDFTLTIDPVQAEDAATYYCQQNAEDSRTFGGGTKLEIKGQPKAAPDIQMTQSPASLSVSVGDTITLTCHASQNIDVWLSWFQQKPGNIPKLLIYKASNLHTGVPSRFSGSGSGTGFTLTISSLQPEDIATYYCQQAHSYPFTFGGGTKLEIKTVAAPRTVAAPSVFIFPPSDEQLKSGTASVVCLLNNFYPREAKVQWKVDNALQSGNSQESVTEQDSKDSTYSLSSTLTLSKADYEKHKVYACEVTHQGLSSPVTKSFNRGEC
In the case of B7, the “IC50 Cellular Assay IL4 [nM]” value (recombinant human IL4 [4]) is reported as 0.045 nM and the Kd (recombinant human IL4 [5]) is reported as 0.007 nM.
